Experimental data reported in the supplement of paper PMC10266784.

B1: library; numbered along this chain (parent)
chain: MAAAAAAAAEQQSSNGPVKKSMREKAVERRSVNKEHNSNFKAGYIPIDEDRLHKTGLRGRKGNLAICVIILLFILAVINLIITLVIWAVIRIGPNGCDSMEFHESGLLRFKQVSDMGVIHPLYKSTVGGRRNENLVITGNNQPIVFQQGTTKLSVENNKTSITSDIGMQFFDPRTQNILFSTDYETHEFHLPSGVKSLNVQKASTERITSNATSDLNIKVDGRAIVRGNEGVFIMGKTIEFHMGGNMELKAENSIILNGSVMVSTTRLPSSSSGDQLGSGDWVRYKLCMCADGTLFKVQVTSQNMGCQISDNPCGNTH

Variants of: B1
Experiment: SGCB cell-surface expression functional score (HA stain, bin4 vs bin1, normalised to synonymous) (log10 ratio); higher = more cell-surface SGCB (functional)
Summary of the method: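 Sorting and sequencing yield the functional score, defined as the log ratio of a variant's highest-bin frequency to its lowest-bin frequency, with the median taken over codons and replicate transductions. The libraries, codon-saturation sets of HA-tagged, YFP-fused human beta-sarcoglycan, went into HEK293 cells stably carrying alpha-, gamma- and delta-sarcoglycan by duplicate lentiviral transduction at MOI <0.1. Cells were stained on ice with Alexa Fluor 647 anti-HA, fixed and split into four 5% intensity bins, and synonymous variants were scaled per section to mean 0, SD 0.5.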

SGCB cell-surface expression functional score (log10): each site, then its substitutions
F146: Q -1.34; N -1.08; K -0.93; E -0.7; M -0.56; D -1.36; T -1.45; W -1.15; C -0.47; Y -0.75; R -1.45; G -0.94; S -0.84; L 0.18; V -0.32; P -1.14; H -0.89; I 0.28; A -1.22
Q142: D -0.54; K -0.31; L -0.54; W 0.21; G -0.22; S 0.05; T -0.17; C -0.01; A -0.06; E -0.04; P -1.08; Y -0.3; M 0.97; V -0.05; F 0.14; R -0.5; H -0.52; N -0.43; I -0.41
Q148: Y -0.25; I -0.28; V 0.28; P -1.36; H -0.24; K -0.27; F -0.38; C 0.39; S 0.42; L -0.18; A 0.12; E -0.58; N -1.26; W 0.01; G 0.33; D -0.54; T 0.08; R 0.02
N134: H 0.34; Q -0.54; D 0.11; E -0.18; G -0.09; T -0.26; K 0.09; M -0.26; C -0.25; Y -0.82; I -0.65; V -0.29; L -0.84; P -0.03; A 0.39; S 0.08; F -0.37; R -0.6; W -0.71
E133: N 0.04; A -0.35; S 0.19; P -1; F -0.38; K -0.35; R -0.14; D 0.54; Q -0.09; L -0.3; V -0.31; G -0.14; C 0.05; I -0.47; W 0.5; Y -0.25; T 0.08; H 0.17; M -0.21
Q147: V 0.26; I -0.06; H -0.39; D -0.27; A 0.19; P -0.68; M -0.04; G -0.41; N 0.29; Y -0.42; R -0.06; W 0.33; T -0.47; K 0.26; L -0.21; F -0.65; S 0.16; C 0.5; E 0.33
T138: D -0.39; F 0.14; I 0.11; G -0.34; N 0.54; R -0.08; S 0.4; E -0.61; M 0.02; K -0.25; P -1; H 0.22; A -0.51; W 0.68; Y -0.33; Q -0.47; C -0.1; L 0.16; V 0.19
L135: C -0.83; N -1.44; Q -1.5; P -1; H -1.28; S -1.11; W -0.88; T -1.04; E -1.07; I -0.47; D -1.2; G -1.2; F -0.08; Y -0.88; R -0.77; A -1.13; M -0.06; V -0.35; K -1.3
V136: C -0.25; A 0.05; Q 0.22; I 0.32; F 0.49; N -0.01; K 0.36; G -0.58; L 0.17; Y 0.15; E 0.05; R -0.57; D -0.33; T -0.51; P -1.03; M -0.57; S -0.3; H -0.22; W 0.57
N140: V 0.16; D -0.24; I -0.12; R 0.05; Q -0.33; F -0.56; L -0.39; A -0.08; G 0.06; W -0.93; K -0.48; T -0.19; S -0.38; C -0.04; Y -0.05; M -0.05; P -0.49; H -0.65; E 0.35
G139: Y -1.89; R -0.98; M -1.05; L -1.18; C -0.65; D -0.84; Q -1.77; K -1.52; V -1.28; A -0.13; E -0.91; F -1.58; N 0.52; P -1.13; S 0.06; W -0.74; I -0.91; T -0.23; H -1.79
N141: S 0.17; G -0.3; A -0.39; I -0.7; E -0.4; K -0.5; M 0.71; V -0.25; W -0.63; R 0.07; P -0.87; H -0.24; D -0.21; Q -0.08; L -0.45; C 0.03; T -0.25; F -0.33; Y -0.56
T150: A -0.2
P143: E -0.73; A -0.21; D -0.9; L -0.54; V 0.07; Y -0.63; K -0.28; T -0.41; C 0.07; F -0.1; H -0.41; Q -0.7; R -0.34; N -0.09; M 0.69; S -0.44; G -0.72; I -0.11
I144: D -0.57; S -0.8; Y -1.1; L -0.46; T -0.64; P -1.22; H -0.73; N -0.97; Q -0.96; G -0.85; M -0.89; R -1.06; A -0.98; F -0.77; E -1.11; C -0.33; K -1.07; V 0.47; W -1.4
I137: C -1.42; G -1.08; S -1.35; M 0.54; K -1.21; Y -1.36; V -0.52; R -1.41; Q -1.71; H -1.24; E -0.97; T -0.7; D -1.25; N -1.72; F -0.01; W -0.8; P -1.44; L -0.12; A -1.07
V145: A -0.01; I 0.52; H -0.24; G -0.81; E -0.03; Q -0.39; N -0.26; Y -0.43; M -0.9; P -1.15; D -0.79; S -0.31; T 0.04; F -0.11; C -0.73; R -0.43; L -0.09; K -0.12; W -0.57
N132: V -0.38; W -0.63; M -0.85; L -0.16; I -0.22; R -0.38; P -1.06; Q -0.01; K -0.36; Y 0.44; T -0.61; S -0.31
G149: D -0.25; R -0.54; F -0.45; P -1.17; Q -0.01; C -0.49; L -0.34; H -0.28; S -0.12; A -0.43; I -0.64; W -0.54; M -0.18; Y -0.57; K -0.63; V -0.88; N 0.19; T -0.75; E -0.93
